According to US20250327081, “TDP-43-BINDING SINGLE-STRANDED APTAMERS AND USES THEREOF” (FONDAZIONE ISTITUTO ITALIANO DI TECNOLOGIA, published 2025):

Experiments:
[1] = biological target: T1, TDP-43 construct (RRM1-2) (UniProt Q13148 Q13148:104-262); assay: BLI; 10 mM K phosphate pH 7.2, 150 mM KCl, 0.01% Tween20, 25 C; about 90 nM in Example 7; settings: label: 3'-biotin (BLI)
Procedure: In this study, the inventors calculated the predicted interaction propensities between the RNA aptamers of Table 1 and TDP-43 and validated the predicted interaction propensities by comparing them with the experimentally measured Kd (dissociation constant) values. To this end, the Kd between each of Apt-1, Apt-2, Apt-3, Apt-11, Apt-12 or Apt-13 and the two RNA recognition motifs of TDP-43 (RRM1-2) was determined by means of biolayer interferometry, a label-free technology to study biomolecular interactions. Importantly, RRM1-2 represents the minimal region necessary for RNA-binding with high affinity (Lukavsky et al., 2013) purifiable as a monomer under near-to-physiological conditions and in suitable quantities (Zacco et al., 2018).
(§1) The binding assays were performed in 10 mM potassium phosphate buffer (pH 7.2) with 150 mM KCl and 0.01% Tween20. Streptavidin-coated biosensors were loaded with 1 μg/ml RNA aptamer modified with biotin on the 3′end and exposed to increasing protein concentrations varying from 20 nM to 20 μM, according to the strength of the binding. Kd values were estimated by fitting the response intensity (shift in the wavelength upon binding) as a function of the protein concentration, at the steady state. The assay was repeated at least 3 times, each time in triplicate. The reported binding curves are examples of the output of one experiment.

[2] = biological target: T1, TDP-43 construct (RRM1-2); assay: BLI; 10 mM K phosphate pH 7.2, 150 mM KCl, 0.01% Tween20, 25 C; settings: label: 3'-biotin
[3] = biological target: T1, TDP-43 construct (RRM1-2); assay: BLI
[4] = biological target: T1, TDP-43 construct (RRM1-2); assay: BLI; 10 mM K phosphate pH 7.2, 150 mM KCl, 0.01% Tween20, 25 C
Procedure: as §1
The inventors verified whether Apt-14 preserves the ability to bind tightly to TDP-43. Bio-layer interferometry was used to determine the dissociation constant of the interaction between Apt-14 and the TDP-43 construct. This experiment was carried out with the same buffer and the same conditions employed for the experiment carried out with Apt-1.

T1 sequence (Q13148 104-262, one chain of several): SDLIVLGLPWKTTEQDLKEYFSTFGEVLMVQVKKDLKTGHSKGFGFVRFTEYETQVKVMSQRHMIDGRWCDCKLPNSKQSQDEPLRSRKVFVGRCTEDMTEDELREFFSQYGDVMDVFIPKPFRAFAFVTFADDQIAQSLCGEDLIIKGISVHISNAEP

| Binder | Kd [2] | also measured |
| --- | --- | --- |
| CGGUGUUGCU (ssRNA) [Apt-1] |  | Kd [1]: 100 nM |
| CGCUGUGGUC (ssRNA) [Apt-3] | 650 nM |  |
| CGAGGCCGGG (ssRNA) [Apt-5] | 1500 nM |  |
| GCGGGGCCCG (ssRNA) [Apt-6] | 1600 nM |  |
| GUGGUCCCCG (ssRNA) [Apt-2] | 750 nM |  |
| GCUGGGGUGGGGCGGAUCGGUGUUG (ssRNA) [Apt-1 (25 nt)] |  | Kd [3]: ~750 nM |
| GGGGUGGGGC (ssRNA) [Apt-4] | 1300 nM |  |
| CGGTGTTGCT (ssDNA) [Apt-14 (DNA version of Apt-1)] |  | Kd [4]: ~76 nM |
